Reference: publication PMC12648313, “Enhancing the Efficacy, Utility, and Throughput of the Transcription Block Survival Peptide Library Screening Platform” (JACS Au, 2025)

Assays:
FAM-labeled CRE DNA = assay: FP DNA binding, ATF2; conditions: ATF2 12 nM-10 μM, 10 nM FAM-CRE DNA; 20 mM potassium phosphate, 50 mM NaCl, 5 mM MgCl2, 10 mM TCEP, pH 7.4; 1 h, room temperature; one site model
[1] = system: CREB1 bZIP-CRE DNA (CRE mDHFR reporter); assay: TBS growth assay: transcription block relief / peptide antagonism in E. coli (CREB1/CRE); assay type: cell-based, E. coli BL21-Gold; conditions: M9 agar, 8 μM TMP, 1 mM IPTG, three independent experiments
Description: To validate the new TBS constructs, six BL21-Gold E. coli control strains were generated. Empty plasmids (lacking gene of interest) were used to control for replication and antibiotic stresses (Table ): Control strains 1 and 4 contained mDHFR gene reporter plasmids for 5xCRE and 9xCRE respectively, and two empty plasmids; control strains 2 and 5 contained reporter plasmid, target plasmid encoding the CREB1 basic-leucine zipper (bZIP) domain and one empty plasmid; control strains 3 and 6 contained reporter plasmid, target plasmid and the antagonist plasmid encoding A-CREB (peptide inhibitor of CREB1 comprising a rationally designed acidic extension appended to the N-terminus of the CREB1 LZ).
2 Introduction of CRE DNA sites into the 5′-promoter/UTR region of a mDHFR plasmid facilitates effective transcription block. […]
(§1) pressure respectively. Three independent growth experiments were conducted for each strain/condition with the percentage of the plate covered by bacterial colonies determined using ImageJ 1.54G. Images were converted to 8-bit, threshold values were set to identify coverage, and the resulting black and white image was measured for percentage coverage in a defined circle excluding the plate edge. Percentage coverage was utilised to quantify both bacterial survival and growth rate.

FAM-CRE DNA = assay: FP DNA binding, CREB1; conditions: pH 7.4
Experimental: (§2) removed before peptide concentration determination.
(§3) Peptide samples were suspended in 20
(§4) Post-melt scans at 20°C confirmed the
(§5) Sequential 2 µL injections of ATF2W (50 µM)
(§6) Data from a control experiment whereby […]
(§7) errors are given as one standard deviation.
(§8) Fluorescence polarisation: Fluorescence polarisation was measured in a CLARIOstar […]
(§9) chloride, 5 mM MgCl2, 10 mM TCEP, pH 7.4 buffer. Palindromic FAM-CRE DNA oligo was […]
(§10) purchased from Merck: 5’[6FAM]- GCGCTGACGTCAGCGC. 200 µM of the oligo was […]
(§11) prepared in water and then annealed by heating to 95°C for 10 minutes before cooling slowly to room temperature to give a 100 µM duplex stock. Samples containing 10 nM FAM-CRE and a serial dilution of ATF2 (12 nM-10 µM) were prepared and incubated at room temperature for 1 hour before transferring to the assay plate for measurement. Data were fit to a one site binding model. For antagonism experiments, the ATF2 concentration required for 80% response was selected. Samples containing 10 nM FAM-TRE, 625 nM ATF2 and a serial dilution of ATF2W (29 nM-12 µM) were prepared and incubated at room temperature for 2 hours before transferring to the assay plate for measurement. CREB1/CRE, cJun/TRE and DLX5/H-box DNA antagonism were determined by the equivalent experiments, using the FAM-CRE oligo above; FAM-TRE DNA oligoes: 5’-[6FAM]-TCTCTGACTCAGAGA, 5’- […]

[2] = system: 9xDLX (H-box) mDHFR reporter; assay: TBS growth assay: transcription block by DLX5 HD / FL; assay type: cell-based, E. coli BL21-Gold; conditions: 8 μM TMP; for colony formation on target expression (transcription block): strains 9 (HD) and 10 (FL) vs 8, 9xDLX mDHFR, M9 agar, 0.8 or 0.2 mM IPTG, 30 or 37 °C, three independent experiments
Description: To highlight the platforms versatility for TFs with distinct DNA recognition motifs, we next constructed a 9xhomeobox (H-Box) system to identify inhibitors of homeodomain-containing TFs, including the DLX (Figure C), pre-B cell leukemia transcription factor (PBX) and orthodenticle homeobox protein (OTX) families. As with the CRE-based design, nine H-box consensus sequences were inserted into the 5′-promoter/UTR region of the mDHFR reporter gene (Figure S4).
(§12) 3 Introduction of H-box DNA sites into the 5′-promoter/UTR region of a mDHFR plasmid enables transcription block by both DLX5 full length and homeodomain. Equal numbers of cells from the control strains (Table ) were plated on selective M9 agar (0 or 8 μM TMP, 0.8 or 0.2 mM IPTG) and incubated (30 or 37 °C) before imaging. Bar charts show % plate coverage for three independent experiments with error bars shown as one standard deviation. Select p values from a t test are indicated (*p ≤ 0.05; **p ≤ 0.01; ns = not significant).
(§13) Enhancing the efficacy, utility and throughput of the Transcription Block Survival peptide library screening platform
(§14) Andrew Brennan1,2, T M Simon Tang1 and Jody M Mason1,2
(§15) 1Department of Life Sciences, University of Bath, Bath BA2 7AY, United Kingdom 2Address correspondence to JMM or AB (j.mason@bath.ac.uk; ab3107@bath.ac.uk) […]
Plasmid constructs: Target cognate binding sequence-containing inserts were produced using PCR fill-in reactions from synthesised primers (Merck). They were then subcloned using XhoI and SphI sites into the pQE16-derivative pES300d WT mDHFR plasmid (Figure S1, S2, S3). […]
as §1

FAM-H-Box DNA = assay: FP DNA binding, DLX5; conditions: pH 7.4
Experimental: as §2, §3, §4, §5, §6, §7, §8, §9, §10, §11

E. coli = assay: TBS growth without TMP (cellular toxicity of expression); assay type: cell-based, E. coli BL21-Gold; conditions: strain 10, 0 μM TMP, 0.8 mM IPTG
Experimental: as §12, §13, §14, §15, §1

cJun bZIP [3] = target: cJun bZIP (UniProt P05412); assay: fluorescence polarization; conditions: FP: chloride salt (buffer and salt concentration truncated in material), 5 mM MgCl2, 10 mM TCEP, pH 7.4; 10 nM FAM-DNA; 1 h incubation, temperature not in …
cJun bZIP [4] = target: cJun bZIP (UniProt P05412); assay: competition (FP); conditions: antagonist peptide ATF2W; FP: chloride salt (buffer and salt concentration truncated in material), 5 mM MgCl2, 10 mM TCEP, pH 7.4; 10 nM FAM-DNA; 1 h incubation, temperature not in …
FAM-TRE DNA = assay: FP DNA binding, cJun; conditions: pH 7.4
Experimental: as §2, §3, §4, §5, §6, §7, §8, §9, §10, §11

DLX5 HD = DLX5 HD (UniProt P56178 138-198); assay: fluorescence polarization; FP: chloride salt (buffer and salt concentration truncated in material), 5 mM MgCl2, 10 mM TCEP, pH 7.4; 10 nM FAM-DNA; 1 h incubation, temperature not in material; conditions: label: 5' 6-FAM; blunt; self-complementary, 2 copies
ATF2 bZIP [5] = target: T1, ATF2 bZIP (human, UniProt P15336 352-410); assay: competition (FP); antagonist: non-selected library member control peptide; FP: chloride salt (buffer and salt concentration truncated in material), 5 mM MgCl2, 10 mM TCEP, pH 7.4; 10 nM FAM-DNA; 1 h incubation, temperature not in material; conditions: chain copies: 2; label: 5' 6-FAM; blunt; self-complementary, 2 copies
T1 sequence: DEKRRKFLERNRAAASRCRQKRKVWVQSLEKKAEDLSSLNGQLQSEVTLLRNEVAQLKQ

ATF2 bZIP [6] = target: T1, ATF2 bZIP; assay: competition (FP); antagonist peptide ATF2W 29 nM-12 uM, 625 nM ATF2; FP: chloride salt (buffer and salt concentration truncated in material), 5 mM MgCl2, 10 mM TCEP, pH 7.4; 10 nM FAM-DNA; 1 h incubation, temperature not in material; conditions: chain copies: 2; label: 5' 6-FAM; blunt; self-complementary, 2 copies
CREB1 bZIP [7] = target: T2, CREB1 bZIP (UniProt P16220 269-327); assay: competition (FP); antagonist peptide ATF2W; FP: chloride salt (buffer and salt concentration truncated in material), 5 mM MgCl2, 10 mM TCEP, pH 7.4; 10 nM FAM-DNA; 1 h incubation, temperature not in material; conditions: chain copies: 2; label: 5' 6-FAM; blunt; self-complementary, 2 copies
T2 sequence: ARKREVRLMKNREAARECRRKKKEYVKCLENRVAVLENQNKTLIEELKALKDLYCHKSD

CREB1 bZIP [8] = target: T2, CREB1 bZIP; assay: fluorescence polarization; FP: chloride salt (buffer and salt concentration truncated in material), 5 mM MgCl2, 10 mM TCEP, pH 7.4; 10 nM FAM-DNA; 1 h incubation, temperature not in material; conditions: chain copies: 2; label: 5' 6-FAM; blunt; self-complementary, 2 copies
ATF2 bZIP [9] = target: T1, ATF2 bZIP; assay: fluorescence polarization; 10 nM DNA, ATF2 12 nM-10 uM; FP: chloride salt (buffer and salt concentration truncated in material), 5 mM MgCl2, 10 mM TCEP, pH 7.4; 10 nM FAM-DNA; 1 h incubation, temperature not in material; conditions: chain copies: 2; label: 5' 6-FAM; blunt; self-complementary, 2 copies

Sequence of DLX5 HD (P56178 138-198): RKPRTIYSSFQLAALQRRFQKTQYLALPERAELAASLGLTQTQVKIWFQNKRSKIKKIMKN

Question: With “ATF2: human ATF2 bZIP domain spans from Asp352 to Gln410” as the molecule, how does the Kd (FAM-labeled CRE DNA) read?
Answer: The Kd was 277 ± 19 nM.

Question: How did the “bacterial growth on target expression (transcription block)” value ([1]; strains 2 and 5 (5xCRE and 9xCRE mDHFR)) turn out when “CREB1: CREB1 bZIP domain spans from Ala283 to Asp341 (ARKREVRLMKNREAARECRRKKKEYVKCLENRVAVLENQNKTLIEELKALKDLYCHKSD)” was run?
Answer: The value was “markedly reduced growth”.

Question: And the Kd (FAM-CRE DNA)?
Answer: The Kd was 156 ± 26 nM.

Question: Which “bacterial growth restoration (relief of transcriptional block)” value ([1]; strains 3 and 6 (5xCRE and 9xCRE mDHFR) expressing CREB1 bZIP and A-CREB, % plate coverage) does the source give for “LEQQLEELAQENEELEKEAEELEQELAELENRVAVLENQNKTLIEELKALKDLYCHKSD [A-CREB, reference compound]” here?
Answer: The value was “Growth was restored”.

Question: Which results are given for “DLX5: DLX5 HD spans from Val137 to Asn198”?
Answer: colony formation on target expression (transcription block) [2]: less pronounced than in the corresponding CRE system; Kd (FAM-H-Box DNA): 383 ± 19 nM

Question: Which results are given for DLX5 FL: full-length DLX5?
Answer: growth inhibition on target expression, comparison FL vs HD ([2]; strain 10 vs 9, optimized conditions: 0.2 mM IPTG or 30 °C): produced a robust transcriptional block and more effectively suppressed E. coli growth than DLX5 HD; colony formation on target expression (transcription block) [2]: introduced a transcriptional block, resulting in reduced colony formation; growth in absence of TMP (cellular toxicity) (E. coli): reduced growth was also observed in the absence of TMP

Question: “TCTCTGACTCAGAGA (double strand) [FAM-TRE]” was tested. Which Kd (cJun bZIP [3]) did it give?
Answer: Its Kd is 330 nM.

Question: And the IC50 (cJun bZIP [4])?
Answer: The IC50 was 1850 nM.

B1: cJun: purified cJun bZIP (protein)
chain: RIKAERKRMRNRIAASKCRKRKLERIARLEEKVKTLKAQNSELASTANMLREQVAQLKQKVMNH
Question: For B1, which Kd (FAM-TRE DNA) is on record?
Answer: The Kd was 330 ± 42 nM.

B2: FAM-H-Box (dsDNA)
DNA 1: TCTCTAATTAGAGA
DNA 2: TCTCTAATTAGAGA
Question: How did the Kd (DLX5 HD) turn out when B2 was run?
Answer: Its Kd is 383 ± 19 nM.

B3: FAM-CRE (dsDNA)
DNA 1: GCGCTGACGTCAGCGC
DNA 2: GCGCTGACGTCAGCGC
Question: With B3 as the molecule, how does the IC50 (ATF2 bZIP [5]) read?
Answer: Its IC50 is 3690 ± 110 nM.

Question: What about the IC50 (ATF2 bZIP [6]) of the same molecule?
Answer: The IC50 was 667 ± 71 nM.

Question: And the IC50 (CREB1 bZIP [7])?
Answer: Its IC50 is 2360 ± 59 nM.

Question: What about the Kd (CREB1 bZIP [8]) of the same molecule?
Answer: Its Kd is 156 ± 26 nM.

Question: And the Kd (ATF2 bZIP [9])?
Answer: The Kd was 277 ± 19 nM.
